# “Also recorded” adds a separate entry of the source.
# T1: stable 3T3 cell lines induced to express human ER-α36 protein (Homo sapiens, UniProt P03372, I452L)
# T1 construct: expressed in transfected cells
# T1 sequence (P03372 1-310 isoform P03372-4 I279L): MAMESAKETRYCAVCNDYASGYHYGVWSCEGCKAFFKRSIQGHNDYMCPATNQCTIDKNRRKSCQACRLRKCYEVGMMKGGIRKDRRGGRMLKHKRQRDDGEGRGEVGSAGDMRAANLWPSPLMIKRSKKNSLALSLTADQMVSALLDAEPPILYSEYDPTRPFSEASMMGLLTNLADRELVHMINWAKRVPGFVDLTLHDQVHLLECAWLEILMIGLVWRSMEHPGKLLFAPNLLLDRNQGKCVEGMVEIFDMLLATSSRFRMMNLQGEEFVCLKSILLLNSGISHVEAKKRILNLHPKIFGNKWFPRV
# T2: ER-α36 (Homo sapiens, UniProt P03372, I452L)
# T2 construct: made in house; host or cells: E. coli BL21 (DE3)
# T2 sequence (P03372 166-310 isoform P03372-4 I279L): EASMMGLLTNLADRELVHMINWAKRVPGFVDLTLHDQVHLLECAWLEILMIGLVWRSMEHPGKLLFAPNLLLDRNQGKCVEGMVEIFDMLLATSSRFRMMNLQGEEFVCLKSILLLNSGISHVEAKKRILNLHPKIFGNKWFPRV
# T3: ER-α36 (Homo sapiens, UniProt P03372)
# T3 sequence (P03372 284-310 isoform P03372-4): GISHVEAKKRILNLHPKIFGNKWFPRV
# B1: SNGmB1: mouse monoclonal anti-ER-α36 antibody (mIgG2b), light chain SEQ ID NO: 16, heavy chain SEQ ID NO: 18 (antibody, listed as Mus musculus)
# heavy: QAYLQQSGAELVRPGASVKMSCKASGYTFTSHNMHWIKQTPRQGLEWIGAIHPVNGDTAYNQKFKGKATLTVDKSSSTAYLQLSSLTSEESAVYFCAREGYGSVDYWGQGTTLTVSSAKTTPPSVYPLAPGCGDTTGSSVTLGCLVKGYFPESVTVTWNSGSLSSSVHTFPALLQSGLYTMSSSVTVPSSTWPSQTVTCSVAHPASSTTVDKKLEPSGPISTINPCPPCKECHKCPAPNLEGGPSVFIFPPNIKDVLMISLTPKVTCVVVDVSEDDPDVQISWFVNNVEVHTAQTQTHREDYNSTIRVVSTLPIQHQDWMSGKEFKCKVNNKDLPSPIERTISKIKGLVRAPQVYILPPPAEQLSRKDVSLTCLVVGFNPGDISVEWTSNGHTEENYKDTAPVLDSDGSYFIYSKLNMKTSKWEKTDSFSCNVRHEGLKNYYLKKTISRSPGK
# light: ETTVTQSPASLSMTIGEKVTIRCITSTDIDDDMNWYRKKPGQPPKLLISEGNTLRPGVPSRFSSSGYGTDFVFTIENMLSEDVADYYCLQSDNLPLTFGAGTKLELKRADAAPTVSIFPPSSEQLTSGGASVVCFLNNFYPKDINVKWKIDGSERQNGVLNSWTDQDSKDSTYSMSSTLTLTKDEYERHNSYTCEATHKTSTSPIVKSFNRNEC
# Tests used:
# [1] = target: T1, stable 3T3 cell lines induced to express human ER-α36 protein; experiment: FACS analysis of binding to inducible 3T3 cell lines; conditions: mouse IgG2b isotype control
# [2] = system: MCF7 mammosphere formation; experiment: Estradiol stimulated MCF7 mammosphere formation assay; assay type: cell-based, human
# Method: The impact of antibody on the formation and growth of cells was evaluated by Estradiol stimulated MCF7 mammosphere formation assay.
# MCF-7 (ATCC) maintained in DMEM medium containing 10% FBS (Gibco) have been passaged 2-3 times prior to assay and are 60% confluence. MCF-7 cells were washed with warm phenol red-free DMEM twice and then grew in phenol red-free DMEM with 2.5% charcoal stripped FBS (CFBS) for 48 hours. The cells were then trypsinized and passed through 40-μm filters to remove cell clumps, followed by stained with 7-AAD and 800 cells were plated into each well of ultra-low binding 24 well plates (Corning Inc.) in 800 μl mammosphere growth medium consisting of serum free DMEM-F12 (Gibco) supplemented with 5 μg/ml insulin, 0.4% bovine serum albumin (Sigma), B27 (Invitrogen), 20 ng/ml EGF and bFGF (BDBiosciences). For the evaluation of antibody activity, 1 nM estradiol in DMSO was added to each well to induce mammosphere formation after adding of antibodies.
# MCF7 cells were grown in the presence of 1 nM estradiol and PBS, human IgG, mouse IgG2b, recombinant ER-α36 ligand binding domain Fc fusion protein, or SNGmB1. DMSO was used as negative control. After 72 hr treatment, the number of mammosphere in culture was counted. […]
# The antibody activity was also evaluated in a longer term of 7 days by following methods: MCF7 mammosphere was prepared using same method described above. […]
# ER-α36 [3] = target: T2, ER-α36; experiment: ELISA binding specificity of SNGmB1; conditions: plate coated at 1 μg/ml, antibody 0.004-10 μg/ml
# Method: The binding specificity of SNGmB1 was assessed using ELISA assay. Five different proteins were used to coat the assay plate at 1 μg/ml. After extensive blocking, the SNGmB1 antibody of different concentrations (10, 2, 0.4, 0.08 and 0.016, 0.004 μg/ml) was added to the assay plate and incubated for 1.5 hours, followed by detection of complex formation using HRP (horse radish peroxidase) labeled anti-mouse IgG Fc (Invitrogen). An example of the data was shown below in FIG. 3. […] The key epitope residues in ER-α36 F domain for SNGmB1 binding have been mapped using both PepScan and Alanine Scan (see Example 5).
# ER-α36 [4] = target: T3, ER-α36; experiment: Biacore binding affinity of chimeric and humanized antibodies (Example 9)
# Method: The humanized antibodies were purified and characterized using ELISA and Biacore for binding analysis.
# The humanized antibodies were tested for their binding affinity to ER-α36.
molecule,measurement,setting,value
B1,binding to 3T3 cell line induced to express human ER-α36 (FACS),[1],specifically bound
same,inhibition of estradiol stimulated MCF7 mammosphere formation,"[2]; 1 nM estradiol, 72 hr treatment, compared with human IgG and mouse IgG2b",significantly inhibited; also recorded: can inhibit on MCF7 mammosphere formation and growth
same,"inhibition of MCF7 mammosphere formation, longer term","[2]; 7 days, estradiol 100 μM or 3 nM, different antibody concentrations, compared with mIgG",better ability in inhibiting mammosphere formation compared with mIgG; also recorded: can inhibit on MCF7 mammosphere formation and growth at different concentrations
same,binding to Fc-LBD protein,ER-α36 [3],bind to
same,Ka,ER-α36 [4]; listed as SNGmB1-20110709(IgG2b),2.12e+06 M⁻¹ s⁻¹
same,Ka,ER-α36 [4]; listed as SNGmB1-20111117(IgG2b),1.76e+06 M⁻¹ s⁻¹

# — patent US10233249B2, “Antibodies and methods for treating estrogen receptor-associated diseases” (BEIJING SHENOGEN PHARMA GROUP LTD., priority 2013, dated 2019)
